The values below come from patent publication US20050153372A1.

In the assay the target is calmodulin (in the CaMKI and calcineurin activity assays). In words: cell-based or functional assay.

Consider phosphorylated DARPP-21, for which the inhibition of CaMKI kinase activity in vitro, IC50 amounted to 1.2 µM and the inhibition of calcineurin phosphatase activity in vitro, IC50 amounted to 1 µM.
